Experimental data taken from patent US20210388087A1 (Chugai, published 2021).

Biological target: T1, CD3 epsilon homodimer protein (UniProt P07766 23-126)
T1 construct: immobilized on Sensor chip CM4 by amine coupling; also called CD3 (CD3 epsilon)
Test: SPR (Biacore T200), CD3 epsilon homodimer on CM4 chip, one-arm antibody as analyte, 25 C;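 also: homodimer attached to the sensor surface via amine coupling, HBS-EP+ used as running buffer during binding runs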

T1 sequence (P07766 23-126): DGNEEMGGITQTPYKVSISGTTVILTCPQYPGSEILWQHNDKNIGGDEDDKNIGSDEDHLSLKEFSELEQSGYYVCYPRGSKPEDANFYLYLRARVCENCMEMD

| Binder | ratio of amounts bound (altered form / CE115HA000) |
| --- | --- |
| CE115HA000 A99Q one-arm antibody (antibody, human IgG1, kappa, L234A L235A, N297A, name in Kabat numbering) heavy: QVQLVESGGGVVQPGRSLRLSCAASGFTFSNAWMHWVRQAPGKGLEWVAQIKAKSNNYATYYAESVKGRFTISRDDSKNSLYLQMNSLKTEDTAVYYCRYVHYGQYYGVDAWGQGTTVTVSSASTKGPSVFPLAPSSKSTSGGTAALGCLVKDYFPEPVTVSWNSGALTSGVHTFPAVLQSSGLYSLSSVVTVPSSSLGTQTYICNVNHKPSNTKVDKKVEPKSCDKTHTCPPCPAPEAAGGPSVFLFPPKPKDTLMISRTPEVTCVVVDVSHEDPEVKFNWYVDGVEVHNAKTKPREEQYASTYRVVSVLTVLHQDWLNGKEYKCKVSNKALPAPIEKTISKAKGQPREPQVYTLPPSRCELTKNQVSLSCAVKGFYPSDIAVEWESNGQPENNYKTTPPVLDSDGSFFLVSKLTVDKSRWQQGNVFSCSVMHEALHNHYTQKSLSLSPDYKDDDDK EPKSSDKTHTCPPCPAPELLGGPSVFLFPPKPKDTLMISRTPEVTCVVVDVSHEDPEVKFNWYVDGVEVHNAKTKPREEQYNSTYRVVSVLTVLHQDWLNGKEYKCKVSNKALPAPIEKTISKAKGQPREPQVCTLPPSRDELTKNQVSLWCLVKGFYPSDIAVEWESNGQPENNYKTTPPVLDSDGSFFLYSKLTVDKSRWQQGNVFSCSVMHEALHNRYTQKSLSLSP light: DIVMTQSPLSLPVTPGEPASISCRSSQSLVHSNRNTYLHWYQQKPGQAPRLLIYKVSNRFSGVPDRFSGSGSGTDFTLKISRVEAEDVGVYYCGQGTQVPYTFGQGTKLEIKRTVAAPSVFIFPPSDEQLKSGTASVVCLLNNFYPREAKVQWKVDNALQSGNSQESVTEQDSKDSTYSLSSTLTLSKADYEKHKVYACEVTHQGLSSPVTKSFNRGEC | 0.91 |
| CE115HA000 A99S one-arm antibody (antibody, human IgG1, kappa, L234A L235A, N297A, name in Kabat numbering) heavy: QVQLVESGGGVVQPGRSLRLSCAASGFTFSNAWMHWVRQAPGKGLEWVAQIKAKSNNYATYYAESVKGRFTISRDDSKNSLYLQMNSLKTEDTAVYYCRYVHYGSYYGVDAWGQGTTVTVSSASTKGPSVFPLAPSSKSTSGGTAALGCLVKDYFPEPVTVSWNSGALTSGVHTFPAVLQSSGLYSLSSVVTVPSSSLGTQTYICNVNHKPSNTKVDKKVEPKSCDKTHTCPPCPAPEAAGGPSVFLFPPKPKDTLMISRTPEVTCVVVDVSHEDPEVKFNWYVDGVEVHNAKTKPREEQYASTYRVVSVLTVLHQDWLNGKEYKCKVSNKALPAPIEKTISKAKGQPREPQVYTLPPSRCELTKNQVSLSCAVKGFYPSDIAVEWESNGQPENNYKTTPPVLDSDGSFFLVSKLTVDKSRWQQGNVFSCSVMHEALHNHYTQKSLSLSPDYKDDDDK EPKSSDKTHTCPPCPAPELLGGPSVFLFPPKPKDTLMISRTPEVTCVVVDVSHEDPEVKFNWYVDGVEVHNAKTKPREEQYNSTYRVVSVLTVLHQDWLNGKEYKCKVSNKALPAPIEKTISKAKGQPREPQVCTLPPSRDELTKNQVSLWCLVKGFYPSDIAVEWESNGQPENNYKTTPPVLDSDGSFFLYSKLTVDKSRWQQGNVFSCSVMHEALHNRYTQKSLSLSP light: DIVMTQSPLSLPVTPGEPASISCRSSQSLVHSNRNTYLHWYQQKPGQAPRLLIYKVSNRFSGVPDRFSGSGSGTDFTLKISRVEAEDVGVYYCGQGTQVPYTFGQGTKLEIKRTVAAPSVFIFPPSDEQLKSGTASVVCLLNNFYPREAKVQWKVDNALQSGNSQESVTEQDSKDSTYSLSSTLTLSKADYEKHKVYACEVTHQGLSSPVTKSFNRGEC | 0.82 |
